Columns and labels:
Settings in all cases: both partners purified
[1] = biological target: T1, MERS-CoV nucleocapsid protein, recombinant (MERS-CoV, strain , UniProt K9N4V7); assay: ELISA
T1 construct: also called MERS-CoV NP; source: bought: Sino Biological

[2] = biological target: T2, HKU1 nucleocapsid protein, recombinant (Human coronavirus HKU1 (isolate N1) …, UniProt Q5MQC6); assay: ELISA
T2 construct: also called HKU1 NP; source: bought: Sino Biological

[3] = biological target: T3, NL63 nucleocapsid protein, recombinant (Human coronavirus NL63 (HCoV-NL63)., UniProt Q6Q1R8); assay: ELISA
T3 construct: also called NL63 NP; source: bought: Sino Biological

[4] = biological target: T4, OC43 nucleocapsid protein, recombinant (Human coronavirus OC43 (HCoV-OC43)., UniProt P33469); assay: ELISA
T4 construct: also called OC43 NP; source: bought: Sino Biological

[5] = biological target: T5, SARS-CoV-2 nucleocapsid protein (WT), recombinant (Severe acute respiratory syndrome …, UniProt P0DTC9); assay: SPR
T5 construct: also called SARS-CoV-2 NP; WT NP; source: bought: Sino Biological; not shown: His tag, C-terminal, kept

[6] = biological target: T6, 229E nucleocapsid protein, recombinant (Human coronavirus 229E (HCoV-229E)., UniProt P15130)
T6 construct: also called 229E NP; source: bought: Sino Biological

[7] = biological target: T7, SARS-CoV nucleocapsid protein, recombinant (Severe acute respiratory syndrome …, UniProt P59595)
T7 construct: also called SARS-CoV NP; source: bought: Sino Biological

B1: P301-F7 (antibody, V domains shown)
VH: QLQLQESGPGLVKPSETLSLTCTVSGGSISSTSYYWGWIRQPPGKGLEWIGSIYYSGSTYYNPSLKSRVTISVDTSKNQFSLKLSSVTAADTAVYYCARFSLYCSSTSCYENWFDPWGQGTLVTVSS
VL: QSVLTQPPSVSAAPGQKVTISCSGSSSNIGNNYVSWYQQLPGTAPKLLIYDNNKRPSGIPDRFSGSKSGTSATLGITGLQTGDEADYYCGTWDSSLSAGQVVFGGGTKLTVL
notes: source: 293 F cells, transient transfection, purified (Protein A beads)
- binding result [1]: no binding
- binding result [2]: no binding
- binding result [3]: no binding
- binding result [4]: no binding
- Kd [5]: 13.3 nM
- binding result [6]: no binding
- Kd [7]: 14.9 nM

— PMC9142731 (Virology Journal, 2022)
